Measured values published in US20230365662A1.
Where a chain is given by its changes, count along the chain named. In names and notes the source's numbering stands. Several values for one entry are separate records, joined by “and”; a condition that tells them apart may be missing. Identical values can stand only once.

Target: HRgpA-6H (Porphyromonas gingivalis) (UniProt P28784)
Experiment: ELISA, FASEBA Fab on coated HRgpA-6H

UniProt P28784, sequence (P28784 228-991): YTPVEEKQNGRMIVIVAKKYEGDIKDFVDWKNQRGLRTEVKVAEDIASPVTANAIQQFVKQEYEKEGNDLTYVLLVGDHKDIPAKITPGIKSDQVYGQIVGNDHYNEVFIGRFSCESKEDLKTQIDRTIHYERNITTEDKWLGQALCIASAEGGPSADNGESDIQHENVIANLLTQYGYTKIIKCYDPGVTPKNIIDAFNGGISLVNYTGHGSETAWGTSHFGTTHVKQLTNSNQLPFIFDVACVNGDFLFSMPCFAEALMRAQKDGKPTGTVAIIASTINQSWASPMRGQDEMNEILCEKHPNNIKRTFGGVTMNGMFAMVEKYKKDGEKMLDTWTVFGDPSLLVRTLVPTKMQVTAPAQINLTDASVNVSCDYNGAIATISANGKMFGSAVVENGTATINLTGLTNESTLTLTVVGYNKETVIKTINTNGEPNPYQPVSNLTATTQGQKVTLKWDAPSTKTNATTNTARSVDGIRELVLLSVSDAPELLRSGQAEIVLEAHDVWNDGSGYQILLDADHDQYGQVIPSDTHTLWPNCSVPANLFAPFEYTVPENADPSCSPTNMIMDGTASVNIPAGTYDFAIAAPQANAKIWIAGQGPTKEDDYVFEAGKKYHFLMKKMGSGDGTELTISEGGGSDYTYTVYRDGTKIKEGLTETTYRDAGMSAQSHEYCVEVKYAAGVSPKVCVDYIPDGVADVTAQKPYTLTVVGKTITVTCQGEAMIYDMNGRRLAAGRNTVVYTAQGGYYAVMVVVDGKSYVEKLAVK

B1: KB001 mouse Fab VL S51G (Fab, V domains shown)
VH: EVQLKQSGPGLVAPSQSLSITCTVSGFSLSIYSVHWVRQPPGKGLEWLGMIWGGGSSDYNSALKSRLSISKDNSKSQVFLKMNSLQTDDTAMYYCARNGNFYAMDYWGQGTSVTVSS
VL: QIVLTQSPAIMSASLGERVTMTCTASSSVSSSFLHWYQQKPGSSPQLWIYGTSNLASGVPARFSGSGSGTSYSLTISSMEAEDAATYYCHQYHHSPYIYTFGGGTKLEIK
**Q.** Which results are given for B1?
**A.** OD450nm: 0.915 and 0.777 and 0.851; Ratio OD(Variant)/OD(WT): 1.05 and 0.888 and 0.973

B2: KB001 mouse Fab VL L55P (Fab, V domains shown)
VH: B1 VH
VL: B1 VL with G51S, L55P
**Q.** With B2 as the binder, how does the OD450nm read?
**A.** 0.827 and 0.764 and 0.724

**Q.** And the Ratio OD(Variant)/OD(WT)?
**A.** 1.06 and 0.975 and 0.924

B3: KB001 mouse Fab VL T100R (Fab, V domains shown)
VH: B1 VH
VL: B1 VL with G51S, T100R
**Q.** With B3 as the binder, how does the OD450nm read?
**A.** 0.616

**Q.** What about the Ratio OD(Variant)/OD(WT) of the same binder?
**A.** 1.18

B4: KB001 mouse Fab VL T100W (Fab, V domains shown)
VH: B1 VH
VL: B1 VL with G51S, T100W
**Q.** With B4 as the binder, how does the OD450nm read?
**A.** 0.585

**Q.** What about the Ratio OD(Variant)/OD(WT) of the same binder?
**A.** 1.12

B5: KB001 mouse Fab VL T100G (Fab, V domains shown)
VH: B1 VH
VL: B1 VL with G51S, T100G
**Q.** Which results are given for B5?
**A.** OD450nm: 0.603 and 0.597; Ratio OD(Variant)/OD(WT): 1.15 and 1.14

B6: KB001 mouse Fab VL S57R (Fab, V domains shown)
VH: B1 VH
VL: B1 VL with G51S, S57R
**Q.** With B6 as the binder, how does the OD450nm read?
**A.** 0.845 and 0.849

**Q.** And the Ratio OD(Variant)/OD(WT)?
**A.** 1.04

B7: KB001 mouse Fab VL S53N (Fab, V domains shown)
VH: B1 VH
VL: B1 VL with G51S, S53N
**Q.** Which results are given for B7?
**A.** OD450nm: 0.838 and 0.707; Ratio OD(Variant)/OD(WT): 1.06 and 0.898

B8: KB001 mouse Fab VL L55N (Fab, V domains shown)
VH: B1 VH
VL: B1 VL with G51S, L55N
**Q.** Which results are given for B8?
**A.** OD450nm: 0.816 and 0.815 and 0.777; Ratio OD(Variant)/OD(WT): 1.04 (2×) and 0.992

B9: KB001 mouse Fab VL N54S (Fab, V domains shown)
VH: B1 VH
VL: B1 VL with G51S, N54S
**Q.** With B9 as the binder, how does the OD450nm read?
**A.** 0.835 and 0.732 and 0.776

**Q.** And the Ratio OD(Variant)/OD(WT)?
**A.** 1.07 and 0.934 and 0.99

B10: KB001 mouse Fab VL T52S (Fab, V domains shown)
VH: B1 VH
VL: B1 VL with G51S, T52S
**Q.** With B10 as the binder, how does the OD450nm read?
**A.** 0.833

**Q.** And the Ratio OD(Variant)/OD(WT)?
**A.** 1.06

B11: KB001 mouse Fab VL S57T (Fab, V domains shown)
VH: B1 VH
VL: B1 VL with G51S, S57T
**Q.** For B11, which OD450nm is on record?
**A.** 0.843

**Q.** What about the Ratio OD(Variant)/OD(WT) of the same binder?
**A.** 1.03

B12: KB001 mouse Fab VL S95Q (Fab, V domains shown)
VH: B1 VH
VL: B1 VL with G51S, S95Q
**Q.** How did the OD450nm turn out when B12 was run?
**A.** 0.931 and 0.936 and 0.927

**Q.** What about the Ratio OD(Variant)/OD(WT) of the same binder?
**A.** 1.01 (2×) and 1.02

B13: KB001 mouse Fab VL T100H (Fab, V domains shown)
VH: B1 VH
VL: B1 VL with G51S, T100H
**Q.** Which results are given for B13?
**A.** OD450nm: 0.597 and 0.631; Ratio OD(Variant)/OD(WT): 1.14 and 1.21

B14: KB001 mouse Fab VL S57E (Fab, V domains shown)
VH: B1 VH
VL: B1 VL with G51S, S57E
**Q.** With B14 as the binder, how does the OD450nm read?
**A.** 0.843

**Q.** What about the Ratio OD(Variant)/OD(WT) of the same binder?
**A.** 1.03

B15: KB001 mouse Fab VL T100Y (Fab, V domains shown)
VH: B1 VH
VL: B1 VL with G51S, T100Y
**Q.** Which OD450nm does the source give for B15 here?
**A.** 0.546

**Q.** And the Ratio OD(Variant)/OD(WT)?
**A.** 1.04

B16: KB001 mouse Fab VL S57P (Fab, V domains shown)
VH: B1 VH
VL: B1 VL with G51S, S57P
**Q.** How did the OD450nm turn out when B16 was run?
**A.** 0.858

**Q.** What about the Ratio OD(Variant)/OD(WT) of the same binder?
**A.** 1.05

B17: KB001 mouse Fab VL S53Q (Fab, V domains shown)
VH: B1 VH
VL: B1 VL with G51S, S53Q
**Q.** How did the OD450nm turn out when B17 was run?
**A.** 0.835 and 0.751 and 0.726

**Q.** What about the Ratio OD(Variant)/OD(WT) of the same binder?
**A.** 1.06 and 0.954 and 0.922

B18: KB001 mouse Fab VL S57Q (Fab, V domains shown)
VH: B1 VH
VL: B1 VL with G51S, S57Q
**Q.** How did the OD450nm turn out when B18 was run?
**A.** 0.858 and 0.838

**Q.** And the Ratio OD(Variant)/OD(WT)?
**A.** 1.05 and 1.03

B19: KB001 mouse Fab VL S57G (Fab, V domains shown)
VH: B1 VH
VL: B1 VL with G51S, S57G
**Q.** Which OD450nm does the source give for B19 here?
**A.** 0.873 and 0.825

**Q.** And the Ratio OD(Variant)/OD(WT)?
**A.** 1.07 and 1.01

B20: KB001 mouse Fab VL S53K (Fab, V domains shown)
VH: B1 VH
VL: B1 VL with G51S, S53K
**Q.** What does the source list for B20?
**A.** OD450nm: 0.841; Ratio OD(Variant)/OD(WT): 1.07

B21: KB001 mouse Fab VL H90W (Fab, V domains shown)
VH: B1 VH
VL: B1 VL with G51S, H90W
**Q.** Which results are given for B21?
**A.** OD450nm: 0.913; Ratio OD(Variant)/OD(WT): 1.06

B22: KB001 mouse Fab VL N54R (Fab, V domains shown)
VH: B1 VH
VL: B1 VL with G51S, N54R
**Q.** Which OD450nm does the source give for B22 here?
**A.** 0.876

**Q.** What about the Ratio OD(Variant)/OD(WT) of the same binder?
**A.** 1.12

B23: KB001 mouse Fab VL Y97E (Fab, V domains shown)
VH: B1 VH
VL: B1 VL with G51S, Y97E
**Q.** Which results are given for B23?
**A.** OD450nm: 0.793; Ratio OD(Variant)/OD(WT): 1

B24: KB001 mouse Fab VL S57N (Fab, V domains shown)
VH: B1 VH
VL: B1 VL with G51S, S57N
**Q.** What does the source list for B24?
**A.** OD450nm: 0.857; Ratio OD(Variant)/OD(WT): 1.05

B25: KB001 mouse Fab VL T52A (Fab, V domains shown)
VH: B1 VH
VL: B1 VL with G51S, T52A
**Q.** How did the Ratio OD(Variant)/OD(WT) turn out when B25 was run?
**A.** 1.17 and 1.08 (2×) and 0.993

B26: KB001 mouse Fab VL N54Q (Fab, V domains shown)
VH: B1 VH
VL: B1 VL with G51S, N54Q
**Q.** Which OD450nm does the source give for B26 here?
**A.** 0.868

**Q.** And the Ratio OD(Variant)/OD(WT)?
**A.** 1.11

B27: KB001 mouse Fab VL T100F (Fab, V domains shown)
VH: B1 VH
VL: B1 VL with G51S, T100F
**Q.** Which OD450nm does the source give for B27 here?
**A.** 0.552

**Q.** What about the Ratio OD(Variant)/OD(WT) of the same binder?
**A.** 1.05

B28: KB001 mouse Fab VL S53H (Fab, V domains shown)
VH: B1 VH
VL: B1 VL with G51S, S53H
**Q.** Which results are given for B28?
**A.** OD450nm: 0.827 and 0.777; Ratio OD(Variant)/OD(WT): 1.05 and 0.987

B29: KB001 mouse Fab VL T100Q (Fab, V domains shown)
VH: B1 VH
VL: B1 VL with G51S, T100Q
**Q.** Which OD450nm does the source give for B29 here?
**A.** 0.586 and 0.596 and 0.604

**Q.** What about the Ratio OD(Variant)/OD(WT) of the same binder?
**A.** 1.12 and 1.14 and 1.15
